In paper PMC7141834 (Science Advances, 2020):

Target: His-Bub3 (recombinant full-length Bub3) (mouse, UniProt Q9WVA3 1-326)
Assay: pull-down

Chain of His-Bub3 (recombinant full-length Bub3) (Q9WVA3 whole entry): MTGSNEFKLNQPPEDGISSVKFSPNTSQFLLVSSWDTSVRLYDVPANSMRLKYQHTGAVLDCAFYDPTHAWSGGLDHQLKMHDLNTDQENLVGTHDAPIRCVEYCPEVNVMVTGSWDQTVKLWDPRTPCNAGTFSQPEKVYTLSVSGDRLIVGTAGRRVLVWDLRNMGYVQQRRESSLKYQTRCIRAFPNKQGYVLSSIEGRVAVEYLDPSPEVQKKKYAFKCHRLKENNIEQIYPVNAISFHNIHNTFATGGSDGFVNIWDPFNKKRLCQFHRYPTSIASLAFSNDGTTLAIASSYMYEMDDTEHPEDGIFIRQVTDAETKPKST

Binder: MTSRFGKTYSRKGGNGSSKFDEVFSNKRTTLSTKWGETTFMAKLGQKRPN (domain or fragment, mouse, UniProt Q65Z40 1-50, looked up) [GST-Wapl(1-50)]
- binding result: binds
